Residue numbers refer to the chain shown, from its start. Each block holds one binder with its values, some of them ahead of it. Bridge positions count the residues as written; N and C are the ends. Ends that are not written are not given here. I, II: the chains in the order shown.
How the values were obtained:
[1] = target: rat relaxin family peptide receptor 2 (RXFP2) (rat) (UniProt Q5ECL0)
[2] = target: rat relaxin family peptide receptor 2 (RXFP2) (rat) (UniProt Q5ECL0); remark: listed apart in the source
[3] = target: rat relaxin family peptide receptor 2 (RXFP2) (rat) (UniProt Q5ECL0); remark: listed apart in the source
[4] = target: human relaxin family peptide receptor 2 (RXFP2) (human) (UniProt Q8WXD0)
Sequence of human relaxin family peptide receptor 2 (RXFP2) (human) (Q8WXD0 whole entry): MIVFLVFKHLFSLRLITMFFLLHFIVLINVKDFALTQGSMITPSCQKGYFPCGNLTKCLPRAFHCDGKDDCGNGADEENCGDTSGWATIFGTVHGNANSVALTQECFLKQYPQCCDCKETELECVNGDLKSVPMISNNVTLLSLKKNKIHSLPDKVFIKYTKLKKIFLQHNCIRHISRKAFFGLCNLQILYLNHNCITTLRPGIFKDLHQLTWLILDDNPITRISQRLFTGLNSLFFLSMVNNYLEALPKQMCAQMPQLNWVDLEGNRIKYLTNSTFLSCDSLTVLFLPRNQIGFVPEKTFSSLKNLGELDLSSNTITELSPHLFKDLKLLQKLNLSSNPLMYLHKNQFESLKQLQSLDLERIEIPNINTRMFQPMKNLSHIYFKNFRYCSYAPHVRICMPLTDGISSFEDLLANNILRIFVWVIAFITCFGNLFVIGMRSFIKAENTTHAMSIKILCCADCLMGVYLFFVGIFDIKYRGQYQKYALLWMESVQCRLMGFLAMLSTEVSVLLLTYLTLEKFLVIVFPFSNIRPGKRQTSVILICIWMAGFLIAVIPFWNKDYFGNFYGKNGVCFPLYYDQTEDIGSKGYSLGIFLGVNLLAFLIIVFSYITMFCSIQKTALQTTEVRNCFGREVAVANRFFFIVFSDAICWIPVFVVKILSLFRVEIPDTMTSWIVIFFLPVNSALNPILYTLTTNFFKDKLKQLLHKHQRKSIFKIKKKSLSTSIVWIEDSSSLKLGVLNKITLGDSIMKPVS

RXFP2 mAb 2H3 (rat) = test: SPR; Biacore S200; goat anti-rat Fc gamma immobilised on a Series S CM5 chip, purified recombinant rat anti-RXFP2 antibodies captured at 5 µg/mL; rat or human LDLa-linker protein flowed as analyte at 20, 10, 5, 2.5, 1.75 and 0 nM; 1:1 fit model

Sequence of rat relaxin family peptide receptor 2 (RXFP2) (rat) (Q5ECL0 entry or part of it): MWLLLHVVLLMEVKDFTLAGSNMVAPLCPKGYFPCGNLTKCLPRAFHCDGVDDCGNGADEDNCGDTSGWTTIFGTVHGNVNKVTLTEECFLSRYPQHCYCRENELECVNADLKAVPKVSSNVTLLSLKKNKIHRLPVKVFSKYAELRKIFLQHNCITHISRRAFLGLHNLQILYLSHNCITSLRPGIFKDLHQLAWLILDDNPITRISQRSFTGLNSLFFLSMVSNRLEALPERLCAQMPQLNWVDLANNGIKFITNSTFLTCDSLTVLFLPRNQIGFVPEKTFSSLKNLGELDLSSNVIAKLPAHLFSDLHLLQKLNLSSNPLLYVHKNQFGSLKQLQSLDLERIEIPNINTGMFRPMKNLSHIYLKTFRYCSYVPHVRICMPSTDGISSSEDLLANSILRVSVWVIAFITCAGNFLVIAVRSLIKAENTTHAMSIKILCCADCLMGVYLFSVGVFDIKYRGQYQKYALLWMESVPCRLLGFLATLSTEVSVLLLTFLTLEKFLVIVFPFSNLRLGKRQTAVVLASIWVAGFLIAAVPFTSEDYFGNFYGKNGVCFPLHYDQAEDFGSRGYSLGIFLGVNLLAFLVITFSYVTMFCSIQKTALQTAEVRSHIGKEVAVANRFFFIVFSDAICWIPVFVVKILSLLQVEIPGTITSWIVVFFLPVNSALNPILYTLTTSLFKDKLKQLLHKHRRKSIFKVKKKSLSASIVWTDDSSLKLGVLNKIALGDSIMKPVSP

B1: RXFP2 mAb 3G4 (antibody, V domains shown)
VH: QVQLKESGPGLVAPSQSLSITCTVSGFSLTSYGVSWVRQPPGKGLEWLGVIWGDGSTNYHSALISRLSISKDNSKSQVFLKLNSLQTDDTATYYCAKSLGYYAMDYWGQGTSVTVSS
VL: DIQMTQSPASLSVSVGETVTITCRASENIYSNLVWYQQKQGKSPQLLVYAATNLAEGVPSRFSGSGSGTQYSLKINSLQSEDFGSYYCQHFWGPPWTFGGGTKLEIK
% Max Response, INSL3 (EC80)-stimulated cAMP in HEK293 stably expressing rat RXFP2 [1]: 83.3%
IC50, INSL3 (EC80)-stimulated cAMP in HEK293 stably expressing rat RXFP2 [1]: 16.1 nM
IC50, INSL3-stimulated CYP11B1 mRNA in H295R stably expressing rat RXFP2 [1]: 0.33 nM
IC50, INSL3-stimulated CYP11B2 mRNA in H295R stably expressing rat RXFP2 [1]: 0.2 nM

B2: RXFP2 mAb 3F3 (antibody, V domains shown)
VH: QVQLQQPGSVLVRPGASVKLSCKASGYIFTSYWMHWVKQRPGQGLEWIGEIYPNSGRTSYNEKFKGKATVTVDTSSSTAYVDLSSLTSEDSAVYYCASGGHWFAYWGQGTLVTVSA
VL: DIQMTQSSSSFSVSLGDRVTITCKASEDIYNRLAWYQQKPGNAPRLLISGATSLEAGVPSRFSGSGSGKDYTLSITSLQTEDVSTYYCQQYWITPYTFGGGTKLEIK
% Max Response, INSL3 (EC80)-stimulated cAMP in HEK293 stably expressing rat RXFP2 [1]: 78.5%
IC50, INSL3 (EC80)-stimulated cAMP in HEK293 stably expressing rat RXFP2 [1]: 37 nM
IC50, INSL3-stimulated CYP11B1 mRNA in H295R stably expressing rat RXFP2 [1]: 3.85 nM
IC50, INSL3-stimulated CYP11B2 mRNA in H295R stably expressing rat RXFP2 [1]: 0.51 nM

B3: RXFP2 mAb 1G1 (antibody, V domains shown)
VH: EVQLQQSGPELVKPGASVKMSCKASGYTFTDYNMHWVKQKPGQGLEWIGYINPYNDGTEYNEKFKGKATLTSDKSSSTAYMDLSSLTSEDSAVYYCARGLWFAMNYWGQGTSVTVSS
VL: B2 VL with A43T, S53I, A56T, T76I, S84A, T94I, Y96P
% Max Response, INSL3 (EC80)-stimulated cAMP in HEK293 stably expressing rat RXFP2 [1]: 87.2%
IC50, INSL3 (EC80)-stimulated cAMP in HEK293 stably expressing rat RXFP2 [1]: 28 nM
IC50, INSL3-stimulated CYP11B1 mRNA in H295R stably expressing rat RXFP2 [1]: 0.27 nM
IC50, INSL3-stimulated CYP11B2 mRNA in H295R stably expressing rat RXFP2 [1]: 0.17 nM

Results, then the binder that gave them:

EC50, aldosterone secretion (ELISA) from H295R cells stably expressing rat RXFP2 [2]: 2.2 nM
EC50, cortisol secretion (ELISA) from H295R cells stably expressing rat RXFP2 [3]: 0.16 nM
B4: Rat INSL3 (ligand)
chain 1: SVATNAVHRCCLTGCTQQDLLGLCPH
chain 2: LRSPQPPEARAKLCGHHLVRALVRVCGGPRWSPEA
modifications: disulfide I:10-I:15, I:11-II:14, I:24-II:26

IC50, INSL3 (EC80)-stimulated cAMP in HEK293 stably expressing human RXFP2 [4]: 218 nM
% Max Response, INSL3 (EC80)-stimulated cAMP in HEK293 stably expressing rat RXFP2 [1]: 69.7%
IC50, INSL3 (EC80)-stimulated cAMP in HEK293 stably expressing rat RXFP2 [1]: 150 nM
B5: RXFP2 mAb 4H1 (antibody, V domains shown)
VH: QIQLVQSGPELKKPGETVKISCKTSGYTFTKYPMHWVKQAPGEGLKWMGWINTYSGLPTFADDFKGRFAFSLETSANTADLQINNLKNEDMATYFCAREGKKLSGYFDYWGQGTTLTVSS
VL: DIKMTQSPSSMYASLGERVTITCKASQDINSYLTWFQQKPGQSPKTLIYRANRFVDGVPSRFSGSGSGQDYSLTITSLEYEDMGIYYCLQYDEFPYTFGGGTQLEIK

% Max Response, INSL3 (EC80)-stimulated cAMP in HEK293 stably expressing human RXFP2 [4]: 82.7%
IC50, INSL3 (EC80)-stimulated cAMP in HEK293 stably expressing human RXFP2 [4]: 354 nM
% Max Response, INSL3 (EC80)-stimulated cAMP in HEK293 stably expressing rat RXFP2 [1]: 80.4%
IC50, INSL3 (EC80)-stimulated cAMP in HEK293 stably expressing rat RXFP2 [1]: 48.5 nM
B6: RXFP2 mAb 4F6 (antibody, V domains shown)
VH: EVQLQQSGPELVKPGASVKMSCKASGYTFTNYVLHWVKQKPGQGLEWIGYINPYNDGSKYNEKFKGRATLTSDKSSSTAYMELSSLTSEDSAVYYCARGGWLLDYFDYWGQGTTLTVSS
VL: DVLMTQSPLSLPVSLGEQASISCRSSQSIVHSDGDTYLEWYLQKPGQSPNLLIYKVSNRFSGVPDRFSGSGSGTDFTLKISRVEAEDLGVYYCFQGSHVPPTFGGGTKLEIK

Kd (RXFP2 mAb 2H3 (rat)): 582 nM
B7: rat LDLa-linker protein (ratRXFP2-LDLa-linker(20-88)) (domain or fragment)
chain: GSNMVAPLCPKGYFPCGNLTKCLPRAFHCDGVDDCGNGADEDNCGDTSGWTTIFGTVHGNVNKVTLTEE

% Max Response, INSL3 (EC80)-stimulated cAMP in HEK293 stably expressing rat RXFP2 [1]: 91%
IC50, INSL3 (EC80)-stimulated cAMP in HEK293 stably expressing rat RXFP2 [1]: 23.2 nM
IC50, INSL3-stimulated CYP11B1 mRNA in H295R stably expressing rat RXFP2 [1]: 2.85 nM
IC50, INSL3-stimulated CYP11B2 mRNA in H295R stably expressing rat RXFP2 [1]: 0.31 nM
B8: RXFP2 mAb 4A5 (antibody, V domains shown)
VH: DVQLVESGGGLVQPGGSRKLSCAASGFTFSTFGMHWVRQAPEKGLEWVAYISSGSSTIYYADTVKGRFTISRDNPKNTLFLQMTSLRSDDTAMYYCSRSYYGSAHYFDYWGQGTTLTVSS
VL: B1 VL with V34A, A50V, E56D, K74R, S77N, S85N, P94T, W96P

Reference: paper PMC11162469, “Discovery of RXFP2 genetic association in resistant hypertensive men and RXFP2 antagonists for the treatment of resistant hypertension” (Scientific Reports, 2024)
